Test results reported in the supplement of paper PMC12764529.

experiment: folding stability dG unfold (combined trypsin and chymotrypsin); higher = more stable
Description: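 Folding stability of de novo designed mini-proteins (<80 aa, no Cys; designed by TrROS, TrMRF, ProteinMPNN and the joint model) was measured by cDNA display proteolysis with trypsin and chymotrypsin. Each protease was used at 11 concentrations in a threefold dilution series plus a no-protease condition. K50 was inferred by Bayesian fitting of sequencing counts, and dG unfold was derived against a sequence-predicted unfolded-state K50 (Tsuboyama et al. method). Sequences shown include variable-length N-terminal GS-type padding (SAGGSAGG...) inside a display construct carrying a PA tag. Rows were kept only if the AF2 dimer inter-PAE was >15, to exclude likely homo-oligomers.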

Sequence | folding stability dG unfold
SAGGSAKITIEPVKDQYRIEIKIPVFDPNGKKDPIEIPMYMPPDDPERMKDQILDWAREKNPDLIISAGGSA [r15_1050_TrROS] | < -1 kcal/mol
SAGGSAKIVIPGMSPSMIRHAIKEGVKKIHIVWPNPEQAKGFKKELEKEDGIPIKVVPAEEAKKLESAGGSA [r15_243_TrROS] | < -1 kcal/mol
SAGGSAKVTVDEKDLKVTVESNIPVLVTYTLPGGKKKPFAGYLPPEKIEEFAKKEAEKFATELLGKSAGGSA [r15_365_TrMRF] | < -1 kcal/mol
SAGGSAMERRTFNLPADRVSPEVLLEKLKAVGLTPTEIKPVPDGVEVVVEYDPSKVEKLEKALKEGSAGGSA [r15_161_JUSTAS] | < -1 kcal/mol
SAGGSAMFEVRKLSEDPSTGVTTELITLPDGKEVTVTTTTDSSGNPTVTVTFPDGTVLSLEEVELESAGGSA [r15_832_JUSTAS] | < -1 kcal/mol
SAGGSAMIEVETRPLPTPRELVTVKFDSEELLPEVIEKLPGVEEVEVSESKGDGKPYYTATFVIPRSAGGSA [r15_344_JUSTAS] | < -1 kcal/mol
SAGGSAMTLVEEVPVAPGTLVEAESIAVSPEGKIYRSRVEGLEPGRARVTVPVEELPGNLEDPELISAGGSA [r15_909_JUSTAS] | < -1 kcal/mol
SAGGSAMVIEVEEEALSEEEAEEIKEEKLKEAKEKLPGEEPVELDIKVTVTVKEPEEKPYKKNILKSAGGSA [r15_663_JUSTAS] | < -1 kcal/mol
SAGGSANFKIRMPNGRPMDIQPDPEGETWVIRMPGGHIIPIEIKDGKLKDIKILPGMPPNWSIEPVSAGGSA [r15_709_TrROS] | < -1 kcal/mol
SAGGSAPDFKIKDIKIPHRRNPNGMYRVEIKLEVPDGRKIPIEVPYNEDGKPTPEQIENAAKELAKSAGGSA [r15_233_TrROS] | < -1 kcal/mol
SAGGSAPEPYTFKMKNPKGPPVEITITRNPNNGNYMISVEMPGPGKKHEGPMPMEDLNNLPGLEPVSAGGSA [r15_622_TrROS] | < -1 kcal/mol
SAGGSAPPPKMKRIELKVEDPEHGYEVRVEVMIYPNDSISIQYESPNGKPLPKERAQKLLKELGIESAGGSA [r15_872_TrROS] | < -1 kcal/mol
SAGGSAPVIPVKSEEEAKEVAKAASPDKDLLFKYPKGNVKLITIDPKNGPKITVKETLPVSPEKALSAGGSA [r15_577_JUSTAS] | < -1 kcal/mol
SAGGSATIKIPPGMDMEIDDVELNPDDKTVEVEITFGDGPMKARITPNGQKEIEMPNGQPFTIPIDSAGGSA [r15_111_TrROS] | < -1 kcal/mol
SAGGSATTTEKWTIGDPSGPPRTVDLTKLPNSDEYLITVTYPDPNHTETGLLSEEEIKKIPNAVPKSAGGSA [r15_622_JUSTAS] | < -1 kcal/mol
SAGGSEEFEFRDPFNGEEFEVTRDPNNGELDVEYPNGWKMRISITDDRFEIVEMKPVPPPPVDPDQKSAGGS [r16_687_TrROS] | < -1 kcal/mol
SAGGSGNPNAPVPYIPKGYKTVPIPLKGDPNASEEELKKKLEEAKEKIKKEIDPTPDGIPIEINEGSAGGSA [r2_149_JUSTAS] | < -1 kcal/mol
SAGGSGTTSPVLVEETVFTDGSATYTRKKVELEEVERPPVPPVEIPEEAREAGLAGDYEAAEAILASAGGSA [r2_196_JUSTAS] | < -1 kcal/mol
SAGGSKDKKMPPEQAKQVQVRVEIPIRVYRPGDGGEPHDFPIEIWGPMKSPEEADKEVNDAIDEFFSAGGSA [r2_244_TrROS] | < -1 kcal/mol

Sequence | folding stability dG unfold
SAGGSMPLETLETTGEYVPGTGVYVTKLAVGDPKSDVSFSVTETRPTTDPVTGTPSLYSKPVSFSYKKSAGG [r19_129_JUSTAS] | < -1 kcal/mol
SAGGSMTELIPTPPSATTLNVTKTVPDPRTGTTVTTNVTVEVVPEGDGYVATVYYDPSGRPVKRSLSAGGSA [r2_123_JUSTAS] | < -1 kcal/mol
SAGGSNPLLDELKDKPFRLPNIRDPGNGRDFPGVPIKIKEAEPPKDDGKISIKVEHPDGPYEMQIDSAGGSA [r2_314_TrROS] | < -1 kcal/mol
SAGGSPKIQIDQYNPNDYYVRIEYPGNGNTHEIPFRGSKGELAKKLEDEAEEHNMPIDVEIYPPDDSAGGSA [r2_161_TrROS] | < -1 kcal/mol
SAGGSPPLVVEEELLSEKTLPEPGTGTVTLTRRTIRDPTADVEWEERFTVTTPPDGSVEVSSTRERLLSAGG [r13_917_JUSTAS] | < -1 kcal/mol
SAGGSTVTVEVETEEEAEALLQGLPELEEVVVVIPGEGEPVEKPVKIEPPAPGVLGETPLPRPSPRLLSAGG [r13_183_JUSTAS] | < -1 kcal/mol
SAGGSTVVTEVSVSPGNPTLTLDSKTPDGKVVAKRVAAPADATATFEVKQTINGNPVITTVTQAPEASAGGS [r16_672_JUSTAS] | < -1 kcal/mol
SAGGSVDVDEEEAEKLIEEALKKGLEVTITARLPDGGVRVLKYEGPDRKRTVIEELPVPPSPLNPALLSAGG [r13_839_JUSTAS] | < -1 kcal/mol
SAGGSVEISEEELEKLIEEGRVDKKEEYPEGVPSKKYETEKLGKELGKPITINVTTTPDGKAVAKVLKSAGG [r13_163_JUSTAS] | < -1 kcal/mol
SAGGSVLPPDAVVYGTETRPFPNGETVEVERERRFPPRPPAPAGVLVEYPDGTVVPAPSPEEAAALLSAGGS [r16_580_JUSTAS] | < -1 kcal/mol
SAGGTVREIKEILKEKGWPVKNVEPGPNGNYTVQLRRPRGKPFKINIPSDNPEEQQALREAIPPDFVSAGGS [r16_821_TrROS] | < -1 kcal/mol
SAGIKEIAKKLGMPPNNIKIKNIQPQPRRKPDPEDGKPEPEPYPTVSVEIEAPGNGKKREASIPADEIQSAG [r5_517_TrROS] | < -1 kcal/mol
SAGIKPGDPLIIKFNFPPEARDKIKKLLEDPGFTYENDPDKGSVSIVFPAADVDRLQDLPGISEIVPVSAGG [r19_212_TrROS] | < -1 kcal/mol
SAGIVIPFEELKEFMSDEEIEDIAREFAQDNGYPPKKIEIEPHPNPGDWITIKAEPDNGNKAPIVFRLPSAG [r5_745_TrROS] | < -1 kcal/mol
SAGKERTWRIYVPKNMPPGRPFEGELELNPNGERDVRISWPGGKTRKIKSPDDIKELAKSGYPIMIEPVSAG [r5_42_TrROS] | < -1 kcal/mol
SAGMDIYTETVVPLRVETDEEEIEEIIEKAKEEAEKKGYKPVEIPVETEPSPEGKTLVTIPVKLLKKAPSAG [r14_109_JUSTAS] | < -1 kcal/mol
SAGMDKPVATFTRQKTPDGTEVLHVTVTTTAAGTGTTDPSTFTFPAGSDPAVVAAKVRAAGVAAVAFEPSAG [r5_37_JUSTAS] | < -1 kcal/mol
SAGMIVKTVTVSPEVPPEEVAERLKRENPWIKEVKPEKVTSVTVPNPGKTLLTVTITIELDDVPEEVLKSAG [r5_326_JUSTAS] | < -1 kcal/mol
SAGMKITFPDGFKEIEVYEDPNYPYIEIPLPGGSIRYDLKDGPIEIEPPGDNRPIRFPIPPGDTITLPSAGG [r19_138_TrROS] | < -1 kcal/mol

Sequence | folding stability dG unfold
SAGMPESEVIPLPDGSVVEVRRWPDSELRFVFPPGGPATVERHDTRTGTVETTPVSAADPEAAAAAVLASAG [r5_674_JUSTAS] | < -1 kcal/mol
SAGMPPVRVVQAPSTVYTDPSPPTLTVESVFTGEGRLSTTSSTVPAPPELADLPAGAAVSRSFTVTVLPSAG [r5_714_JUSTAS] | < -1 kcal/mol
SAGMPRLVTVEMVVLRVVPVYDPEGKPVREEPREERRTRTAPLAEAQAEIDALPPDEEVTEILRVEPESAGG [r19_114_JUSTAS] | < -1 kcal/mol
SAGMTPEELEAGRPVERTIPLEIQHPEGNPIATYNITGTLTMEELKKLKEEIREEAKKKGIPPNLNTSLSAG [r5_606_JUSTAS] | < -1 kcal/mol
SAGMVKIKIYVENPETGEEKELEIVKEFESEEEAEKEAEKIAKELEKAGYKVKKIEIEVIPLPPLPENPSAG [r5_660_TrMRF] | > 6 kcal/mol
SAGPKIEIEPLDWERDPGNGHMVIPVEISVKVPREENGRPPEQAEEKKESLVREFAREWAPKHGMPIHVSAG [r5_333_TrROS] | < -1 kcal/mol
SAGPLKPGKTIEVPMEFTSPSDIVDELEKLPGIKDIEPTGIEPEPNPDGPPRIRVPFTFKIPKDGEPLSAGG [r19_221_TrROS] | < -1 kcal/mol
SAGPNFQIKKVEHKGGKIEIPIRLPNGRPFTARIKVEKRPDPDGNDRPRTKIEISEDALKEYIPPDLIKSAG [r5_462_TrROS] | < -1 kcal/mol
SAGPNPGEPLTVVTETSTEKVPTSSGRAVPVTTSTASNGTVIEKFPDGKVLVFEPGKGPENKTVLPEVSAGG [r19_199_JUSTAS] | < -1 kcal/mol
SAGSEIYEAAKAGKKATVPVETTLTEVTEESVTPLGGPTLKAREVARTTFNAKLTKFDPKTGKITTDLPSAG [r5_5_JUSTAS] | < -1 kcal/mol
SAGSVTATITLPSGETVTVDVAPDEERILTTPEGRLLRLTDVRPGAVAFTEGENFVPDEDGNLVPLSLLSAG [r5_417_JUSTAS] | < -1 kcal/mol
SAGVPVDLHHDPKGVELATSTSYTPSGEPVGSSSSTHTVPGTGTPVSVYSPVYDDGAGLITRTYLAKLSAGG [r19_185_JUSTAS] | < -1 kcal/mol
SAGWKIKIYPPNGQPQEIPIEDAKEIAEELAEQGNVQITPDGDIYIPFPMKDPEDGKPHQMYIQIERDKSAG [r5_243_TrROS] | < -1 kcal/mol
SAKITITLPNGKKIEIELPEGYEIVEVTFDKETGVITIKVKNKETGKEYKITLTFNEDGSLTISIEEVDSAG [r14_311_TrROS_Hall] | > 6 kcal/mol
SAMDAKELAEEIADEFAPKFPNIKPKKVTVEPTGDHYEGNIEWEMPNGRPMRVEVTVEKDGNIEDIEFHSAG [r14_719_TrROS] | < -1 kcal/mol
SAMPLSELEFVEERVFPDPPVRISVYRLPSPGVWVVPVLEPGTGRPRLVELEAADGVLDEEEVRAAVLESAG [r14_948_JUSTAS] | < -1 kcal/mol
SAMSPELEELLAQLKAAAEATTDVSVFATDAAGNLRSIGPVTVTGPATSLAELRPELAARPVARVELVGSAG [r14_318_JUSTAS] | < -1 kcal/mol
SAPEVSVEEEEEEITDPVTGEKTTVYKITTKITLPDPNSSKKVTLTKPVIVEKTKSGTKVTEKPVFLLLSAG [r14_339_JUSTAS] | < -1 kcal/mol
SASSTLTFTLPRYTVNKVYDKEGKPVPVEITPVPTLEVTATTLPDGTVVVTIGDETRTYPPGVSPEELLSAG [r14_909_JUSTAS] | < -1 kcal/mol
